Results published in the Immune Epitope Database (IEDB).

Experiments:
HLA-B*07:02 = assay: IEDB peptide-MHC binding, purified MHC/competitive/radioactivity; filed as Kd, often an IC50 or EC50 that approximates it; ≥ and ≤ were set here for values at or beyond the usual limits of such assays
HLA-B*51:01 [1] = assay: as above
HLA-B*53:01 = assay: as above
HLA-B*35:01 = assay: as above; conditions: source organism: Dengue virus 2 Jamaica/1409/1983
HLA-B*15:01 = assay: as above
HLA-B*15:03 = assay: as above
HLA-A*11:01 = assay: IEDB peptide-MHC binding, purified MHC/competitive/fluorescence; ≥ and ≤ were set here for values at or beyond the usual limits of such assays
HLA-A*02:01 = assay: IEDB peptide-MHC binding, purified MHC/competitive/radioactivity; filed as Kd, often an IC50 or EC50 that approximates it; ≥ and ≤ were set here for values at or beyond the usual limits of such assays; conditions: source organism: Human immunodeficiency virus type 1 (CLONE 12)
HLA-A*02:02 = assay: as above
HLA-A*02:03 = assay: as above
HLA-A*02:06 = assay: as above
HLA-A*68:02 = assay: as above
HLA-A*30:01 = assay: as above
HLA-B*51:01 [2] = assay: IEDB peptide-MHC binding, purified MHC/competitive/fluorescence; filed as Kd, often an IC50 or EC50 that approximates it; ≥ and ≤ were set here for values at or beyond the usual limits of such assays; conditions: source organism: West Nile virus
HLA-B*57:01 = assay: IEDB peptide-MHC binding, purified MHC/competitive/radioactivity; filed as Kd, often an IC50 or EC50 that approximates it; ≥ and ≤ were set here for values at or beyond the usual limits of such assays; conditions: source organism: Murray valley encephalitis virus (strain MVE-1-51)
HLA-A*32:01 = assay: as above
HLA-B*08:01 = assay: as above; conditions: source organism: Vaccinia virus WR
HLA-A*03:01 = assay: IEDB peptide-MHC binding, purified MHC/competitive/fluorescence; filed as Kd, often an IC50 or EC50 that approximates it; ≥ and ≤ were set here for values at or beyond the usual limits of such assays; conditions: source organism: Brucella abortus str. 2308 A
[3] = source organism: Dengue virus 2 Peru/IQT2913/1996
[4] = source organism: Vaccinia virus WR
[5] = source organism: Human immunodeficiency virus type 1 (CLONE 12)
[6] = source organism: Lassa virus GA391
[7] = source organism: Dengue virus 1 Brazil/97-11/1997
[8] = source organism: Dengue virus 3 Martinique/1243/1999
[9] = source organism: Dengue virus 4 Philippines/H241/1956

## IPTVMAFHL
HLA-B*07:02; [3]
  Kd: 596 nM
HLA-B*51:01 [1]; [3]
  Kd: 5510 nM
HLA-B*53:01; [3]
  Kd: 48.9 nM

## TPPGSRDPF
HLA-B*07:02; source organism: Dengue virus 2 Jamaica/1409/1983
  Kd: 9880 nM
HLA-B*35:01
  Kd: 160 nM

## YAFSKYMSF
HLA-B*15:01; [4]
  Kd: 8.99 nM
HLA-B*15:03; [4]
  Kd: 1.77 nM

## NISGQSPAR
HLA-A*11:01; source organism: Zaire ebolavirus
  IC50: 47600 nM

## LLAISAVYF
HLA-B*15:01; [4]
  Kd: 31.7 nM

## PLTFGWCYKL
HLA-A*02:01
  Kd: 6850 nM
HLA-A*02:02; [5]
  Kd: ≥ 29400 nM
HLA-A*02:03; [5]
  Kd: 19300 nM
HLA-A*02:06; [5]
  Kd: 13200 nM
HLA-A*68:02; [5]
  Kd: ≥ 20100 nM

## ISTYPGNTF
HLA-B*15:03; [4]
  Kd: 0.479 nM

## ILAADLEKL
HLA-A*02:02; [6]
  Kd: 32.3 nM
HLA-A*02:03; [6]
  Kd: 20 nM
HLA-A*02:06; [6]
  Kd: 195 nM
HLA-A*68:02; [6]
  Kd: 4290 nM

## KMRPMFAVG
HLA-A*30:01; [7]
  Kd: 14.7 nM
HLA-B*15:01; [7]
  Kd: 34.6 nM

## RPAVGGKTV
HLA-B*51:01 [2]
  Kd: ≥ 20000 nM

## LGFLNEDHW
HLA-B*57:01
  Kd: 172 nM

## AQMWSLMYF
HLA-A*02:06; [8]
  Kd: 12.8 nM
HLA-B*15:01; [8]
  Kd: 0.33 nM

## MLMFIFTGI
HLA-A*30:01; [4]
  Kd: 281 nM
HLA-A*32:01; [4]
  Kd: 1450 nM
HLA-B*08:01
  Kd: 265 nM
HLA-B*15:01; [4]
  Kd: 1410 nM
HLA-B*15:03; [4]
  Kd: 1010 nM

## VPSIKSGNDI
HLA-B*07:02; [7]
  Kd: 1370 nM
HLA-B*51:01 [1]; [7]
  Kd: ≥ 22000 nM
HLA-B*53:01; [7]
  Kd: ≥ 47600 nM

## RIKGMSYTM
HLA-A*32:01; [9]
  Kd: 37.4 nM
HLA-B*15:01; [9]
  Kd: 32.2 nM

## IQYDRRSFF
HLA-B*15:03; source organism: Vaccinia virus Copenhagen
  Kd: 0.154 nM

## YKTLCDMIK
HLA-A*11:01; source organism: Vaccinia virus
  IC50: ≥ 230000 nM

## FLWWGKWRK
HLA-A*03:01
  Kd: 3.1 nM

## SQKTTWLPVL
HLA-B*15:01; [7]
  Kd: 91.5 nM

## SQHNYRPGYF
HLA-B*15:01; [7]
  Kd: 9.37 nM
